Measurements: patent US20230139516A1 (CEDARS SINAI MEDICAL CENTER, published 2023)

Assays:
[1] = target: T1, c-Myc (human, UniProt P01106-1 1-439, limits assumed); assay: PLA of endogenous proteins in HEK293T cells (FIG. 21B)
T1 construct: also called c-Myc oncoprotein

[2] = target: T2, 3×FLAG-tagged RIPK2 (RIPK2m4 with C-terminal 3×FLAG tag) (human, UniProt O43353 1-540); assay: IP of RIPK2 complexes, label-free MS (heatmap and LFQ histogram, FIG. 5A-B)
T2 construct: The same label (3×Flag-tagged RIPK2, expressed in HeLa cells) is the enzyme of the in vitro kinase assay; also called RIPK2-Flag; RIPK2m4-3×FLAG; not shown: 3×FLAG tag fused to the C-terminus
T2 sequence (O43353 whole entry, the tested form may be a part): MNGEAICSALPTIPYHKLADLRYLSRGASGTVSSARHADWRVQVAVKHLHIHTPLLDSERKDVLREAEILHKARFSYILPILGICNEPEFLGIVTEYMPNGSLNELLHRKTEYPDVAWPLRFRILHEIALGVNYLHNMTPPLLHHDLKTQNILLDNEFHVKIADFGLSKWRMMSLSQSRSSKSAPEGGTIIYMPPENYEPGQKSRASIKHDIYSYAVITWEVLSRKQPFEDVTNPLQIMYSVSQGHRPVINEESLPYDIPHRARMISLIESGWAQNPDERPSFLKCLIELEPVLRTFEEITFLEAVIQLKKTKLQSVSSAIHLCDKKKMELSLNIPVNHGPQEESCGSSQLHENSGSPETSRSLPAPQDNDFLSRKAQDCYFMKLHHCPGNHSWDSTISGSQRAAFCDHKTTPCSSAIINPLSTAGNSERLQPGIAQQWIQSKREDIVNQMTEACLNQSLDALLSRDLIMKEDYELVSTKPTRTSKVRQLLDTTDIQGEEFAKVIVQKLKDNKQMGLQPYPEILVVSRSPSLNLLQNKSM

[3] = target: T3, receptor-interacting protein kinase 2 (RIPK2), endogenous (human, UniProt O43353 1-540); assay: PLA of endogenous proteins in HEK293T and parental PC cells (FIG. 20A-B)
T3 construct: Endogenous protein detected in cells with anti-RIPK2 antibodies (PLA, IP)
T3 sequence (O43353 whole entry): as the sequence (O43353 whole entry, the tested form may be a part) above

Measured: binding result

T1 sequence (P01106 16-454 limits assumed): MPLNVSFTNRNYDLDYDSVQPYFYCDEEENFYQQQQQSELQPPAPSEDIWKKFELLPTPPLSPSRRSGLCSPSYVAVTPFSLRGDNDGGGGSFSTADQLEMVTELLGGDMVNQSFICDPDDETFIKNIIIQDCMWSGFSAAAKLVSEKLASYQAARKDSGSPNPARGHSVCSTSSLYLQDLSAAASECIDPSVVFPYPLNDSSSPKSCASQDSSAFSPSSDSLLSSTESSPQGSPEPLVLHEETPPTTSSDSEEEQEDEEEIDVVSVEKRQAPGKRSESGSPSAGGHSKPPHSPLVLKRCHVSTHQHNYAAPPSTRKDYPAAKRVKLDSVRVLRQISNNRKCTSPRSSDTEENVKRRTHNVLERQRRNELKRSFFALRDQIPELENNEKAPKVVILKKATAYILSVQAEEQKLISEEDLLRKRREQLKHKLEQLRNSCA

B1: MKK7 (MAP2K7), endogenous (enzyme, human, UniProt O14733 2-419, looked up)
chain: AASSLEQKLSRLEAKLKQENREARRRIDLNLDISPQRPRPTLQLPLANDGGSRSPSSESSPQHPTPPARPRHMLGLPSTLFTPRSMESIEIDQKLQEIMKQTGYLTIGGQRYQAEINDLENLGEMGSGTCGQVWKMRFRKTGHVIAVKQMRRSGNKEENKRILMDLDVVLKSHDCPYIVQCFGTFITNTDVFIAMELMGTCAEKLKKRMQGPIPERILGKMTVAIVKALYYLKEKHGVIHRDVKPSNILLDERGQIKLCDFGISGRLVDSKAKTRSAGCAAYMAPERIDPPDPTKPDYDIRADVWSLGISLVELATGQFPYKNCKTDFEVLTKVLQEEPPLLPGHMGFSGDFQSFVKDCLTKDHRKRPKYNKLLEHSFIKRYETLEVDVASWFKDVMAKTESPRTSGVLSQPHLPFFR
binds: [1] | [2] | [3]
